{"source": "patent US20210139964", "about": "“RNA TAGGING SYSTEM FOR VISUALIZATION OF SINGLE MRNA MOLECULES” (ALBERT EINSTEIN COLLEGE OF MEDICINE, published 2021)", "key": {"[1]": {"molecular_target": "MS2 coat protein (literature) (Enterobacteria phage MS2) (UniProt P03612)", "sequence (P03612 2-130)": "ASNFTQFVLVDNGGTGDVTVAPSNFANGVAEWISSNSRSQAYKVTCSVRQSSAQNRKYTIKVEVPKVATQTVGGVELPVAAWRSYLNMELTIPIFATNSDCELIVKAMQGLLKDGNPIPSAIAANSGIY", "details": "CITED Lowary and Uhlenbeck 1987, cited from earlier work"}, "[2]": {"molecular_target": "MS2 coat protein (MCP) (Enterobacteria phage MS2, UniProt P03612 P03612:2-130)", "sequence (P03612 2-130, one chain of several)": "as the sequence (P03612 2-130) above", "test": "EMSA; sub-nanomolar; exact value only in figure; about 10-fold tighter than wt (p109); 10 mM Tris, 100 mM NaCl, 0.1 mM EDTA, tRNA, heparin, room temperature, 3 h", "details": "tags: MBP-TEV N-terminal, C-terminal 6xHis (plasmid pET336, E. coli Rosetta2); chain copies: 2 (inferred); label: 5' fluorescein; hairpin", "protocol": "Design of a new MBS-MCP system faithfully recapitulating mRNA kinetics —We considered four variables that could influence the ability of the MS2 array to block degradation by […] when MCP is bound. First, the loop sequence can affect the affinity of MCP for the stem. […] The current MBSV5 and MBSORF versions have a U to C change in position −5 of all loops (FIG. 2A-C). We compared the high affinity C-variant loops to the wt-loops (FIG. 2D). The affinities of the MBS-MCP binding were analyzed by electrophoretic mobility shift assay (EMSA). As a control, we used the original loop sequence from the bacteriophage with a U or a C at position −5. In addition, C or U variants were generated for two MS2 loops (Loop1 and Loop2), each of them with a different stem sequence (FIG. 2D). Apparent equilibrium dissociation constants (Kd) were extracted from plots of MCP bound versus free (FIG. 2E-G).\nComplexes were monitored and quantified by EMSA as previously described (Chao et al., 2008). In brief, 100 pM RNAs were incubated at room temperature for three hours with 2 fold dilutions of MCP in 10 mM Tris, 100 mM NaCl, 0.1 mM EDTA, 0.01 mg/mL tRNA, […] heparin and 0.01% IGEPAL CA630. Complexes were then run using 5% native PAGE in 0.5×TBE and visualized using the Typhoon 9400 variable mode laser scanner (GE Healthcare)."}}, "note": "Where two headings read alike, the source gives them in different places.", "data": [{"molecule": "MS2 C-variant operator loop (literature)", "values": [{"measurement": "Kd", "setting": "[1]; dissociation about 90 times slower than wt", "value": 1, "unit": "nM"}]}, {"molecule": "MS2 wt operator loop (literature)", "values": [{"measurement": "Kd", "setting": "[1]; Valegard et al.", "value": 10, "unit": "nM"}]}, {"molecule": "ACAUGAGGAUCACCCAUGU (ssRNA)", "note": "[MS2 C-variant stem loop]", "values": [{"measurement": "Kd", "setting": "[2]", "value": "< 1", "unit": "nM"}]}]}
